Measured values taken from patent US20140094416A1, “SPARC ANGIOGENIC DOMAIN AND METHODS OF USE” (Abraxis BioScience, LLC, priority 2009, published 2014).

B1: SPARC: Secreted Protein, Acidic, Rich in Cysteines; recombinant human SPARC expressed and purified using HEK 293 cells (protein, listed as Homo sapiens)
chain: APQQEALPDETEVVEETVAEVTEVSVGANPVQVEVGEFDDGAEETEEEVVAENPCQNHHCKHGKVCELDENNTPMCVCQDPTSCPAPIGEFEKVCSNDNKTFDSSCHFFATKCTLEGTKKGHKLHLDYIGPCKYIPPCLDSELTEFPLRMRDWLKNVLVTLYERDEDNNLLTEKQKLRVKKIHENEKRLEAGDHPVELLARDFEKNYNMYIFPVHWQFGQLDQHPIDGYLSH

Legend:
[1] = test system: PC3 model; assay: Tumor volume in mice, PC3 model; type: in vivo
Experimental: Tumor volume was measured in mice being treated with Abraxane alone (15 mg/kg administered daily for five days), Abraxane and Sutent (the Sutent administered at 30 mg/kg daily for 8 weeks), Abraxane and exogenous SPARC (the SPARC at […] administered twice a week for eight weeks), and finally, Abraxane, Sutent and SPARC together.
FIG. 1 depicts a graph plotting tumor volume (mm^3) against time (days) for these test conditions.

[2] = test system: HUVEC; assay: HUVEC sprout formation bead assay; type: cell-based; details: addition of rhSPARC
Experimental: (§1) Recombinant human SPARC and genetically engineered variants were expressed and purified using HEK 293 cells maintained in hollow fiber bio-reactors. The angiogenic activity of rhSPARC and its variants was evaluated using a HUVEC tube formation assay and a HUVEC sprout formation bead assay.
(§2) In the HUVEC tube formation assay, rhSPARC was pro-angiogenic at 10 μg/mL and anti-angiogenic at 100 μg/mL. […] Additional rhSPARC variants with deletions and single/double amino acid substitutions tested in these assays included: Q3 deletion (BIO2), an inversion of the putative angiogenic domain (BIO5), a double K>Q substitution in the proposed angiogenic domain (BIO11), the genetic ablation of the putative catephsin K recognition sites (BIO8), and a proteolytic degradation product of rhSPARC. End terminal amino acid analysis indicated the angiogenic activity is localized to SEQ ID NO: 1.

[3] = test system: HUVEC; assay: HUVEC (3-D) tube formation assay; type: cell-based
Experimental: as §1, §2
FIG. 4 depicts the results of a HUVEC 3-D tube formation assay conducted with wild type SPARC and SPARC-D. The angiogenic behavior of wild type SPARC, as described in the previous example, can be seen in the graph; the angiogenic behavior increases as the concentration approaches 10 ug/ml and drops off as it approaches 100 ug/ml.

Molecule	efficacy of the SPARC/Abraxane combination (tumor volume) ([1]; Sutent 30 mg/kg daily for 8 weeks added to SPARC and Abraxane)	decrease in tumor volume ([1]; Sutent 30 mg/kg daily for 8 weeks with Abraxane, versus Abraxane alone)	blood vessel maturity in sprout formation [2]	angiogenic activity ([3]; 10 μg/mL, listed as rhSPARC)	angiogenic activity ([3]; 10 μg/mL, listed as wild type SPARC)	angiogenic activity ([3]; 100 μg/mL, listed as rhSPARC)	angiogenic activity ([3]; 100 μg/mL, listed as wild type SPARC)	tumor volume ([1]; exogenous SPARC 0.2 mg/ms twice a week for eight weeks with Abraxane, versus Abraxane alone)	effect on synergy of Abraxane and Sutent (tumor volume) ([1]; exogenous SPARC along with Abraxane and Sutent)
CCN(CC)CCNC(=O)c1c(C)[nH]c(/C=C2\C(=O)Nc3ccc(F)cc32)c1C [Sutent®, reference compound]	markedly improved	far greater decrease in tumor volume							
B1			more mature blood vessels well supported by pericytes	pro-angiogenic	increases	anti-angiogenic	drops off	tumor volume is slightly greater	negates some of the synergistic affect
